According to article doi:10.1101/2022.11.10.515925 (bioRxiv, 2022):

B1: KIF20A 55-665 Δ(535-549) (dimeric motor, shortened neck linker) (domain or fragment, mouse, UniProt P97329 55-665, looked up)
chain: ALLEDTSEKVKVYLRIRPFLTSELDRQEDQGCVCIENTETLVLQAPKDSFALKSNERGVGQATHKFTFSQIFGPEVGQVAFFNLTMKEMVKDVLKGQNWLIYTYGVTNSGKTYTIQGTSKDAGILPQSLALIFNSLQGQLHPTPDLKPLLSNEVIWLDSKQIRQEEMKKLSLLIGGLQEEELSTSVKKRVHTESRIGASNSFDSGVAGLSSTSQFTSSSQLDETSQLWAQPDTVPVSVPADIRFSVWISFFEIYNELLYDLLEPPSHQHKRQTLRLCEDQNGNPYVKDLNWIHVRDVEEAWKLLKVGRKNQSFASTHMNQQSSRSHSIFSIRILHLQGEGDIVPKISELSLCDLAGSERCKHQKSGERLKEAGNINTSLHTLGRCIAALRQNQQNRSKQNLIPFRDSKLTRVFQGFFTGRGRSCMIVNVNPCASTYDETLHAAKFSALASQLVHAPPVHLGIPSLHSFIKKHSPQVGPGLDEADVSVYGKEELLQVVEAMKALLLKERQEKLQLEIQLREEICNEMVEQMQQREQWCSERLDNQKELMEELYEEKLKILKESLTTFYQEQIQERDEKIEELETLLQEAKQQPAAQQ
B2: KIF20A 25-665 (dimeric motor construct) (domain or fragment, mouse, UniProt P97329 25-665, looked up)
chain: ESTAADLRSVVRKDLLSDCSVISASLEDKQALLEDTSEKVKVYLRIRPFLTSELDRQEDQGCVCIENTETLVLQAPKDSFALKSNERGVGQATHKFTFSQIFGPEVGQVAFFNLTMKEMVKDVLKGQNWLIYTYGVTNSGKTYTIQGTSKDAGILPQSLALIFNSLQGQLHPTPDLKPLLSNEVIWLDSKQIRQEEMKKLSLLIGGLQEEELSTSVKKRVHTESRIGASNSFDSGVAGLSSTSQFTSSSQLDETSQLWAQPDTVPVSVPADIRFSVWISFFEIYNELLYDLLEPPSHQHKRQTLRLCEDQNGNPYVKDLNWIHVRDVEEAWKLLKVGRKNQSFASTHMNQQSSRSHSIFSIRILHLQGEGDIVPKISELSLCDLAGSERCKHQKSGERLKEAGNINTSLHTLGRCIAALRQNQQNRSKQNLIPFRDSKLTRVFQGFFTGRGRSCMIVNVNPCASTYDETLHAAKFSALASQLVHAPPVHLGIPSLHSFIKKHSPQVGPGLEKEDKADSDLEDSPEDEADVSVYGKEELLQVVEAMKALLLKERQEKLQLEIQLREEICNEMVEQMQQREQWCSERLDNQKELMEELYEEKLKILKESLTTFYQEQIQERDEKIEELETLLQEAKQQPAAQQ
B3: KIF20A 1-665 (dimeric motor construct) (domain or fragment, mouse, UniProt P97329 1-665, looked up)
chain: MSHRILSPPAGLLSDEDVVDSPILESTAADLRSVVRKDLLSDCSVISASLEDKQALLEDTSEKVKVYLRIRPFLTSELDRQEDQGCVCIENTETLVLQAPKDSFALKSNERGVGQATHKFTFSQIFGPEVGQVAFFNLTMKEMVKDVLKGQNWLIYTYGVTNSGKTYTIQGTSKDAGILPQSLALIFNSLQGQLHPTPDLKPLLSNEVIWLDSKQIRQEEMKKLSLLIGGLQEEELSTSVKKRVHTESRIGASNSFDSGVAGLSSTSQFTSSSQLDETSQLWAQPDTVPVSVPADIRFSVWISFFEIYNELLYDLLEPPSHQHKRQTLRLCEDQNGNPYVKDLNWIHVRDVEEAWKLLKVGRKNQSFASTHMNQQSSRSHSIFSIRILHLQGEGDIVPKISELSLCDLAGSERCKHQKSGERLKEAGNINTSLHTLGRCIAALRQNQQNRSKQNLIPFRDSKLTRVFQGFFTGRGRSCMIVNVNPCASTYDETLHAAKFSALASQLVHAPPVHLGIPSLHSFIKKHSPQVGPGLEKEDKADSDLEDSPEDEADVSVYGKEELLQVVEAMKALLLKERQEKLQLEIQLREEICNEMVEQMQQREQWCSERLDNQKELMEELYEEKLKILKESLTTFYQEQIQERDEKIEELETLLQEAKQQPAAQQ
B4: KIF20A 55-665 (dimeric motor construct) (domain or fragment, mouse, UniProt P97329 55-665, looked up)
chain: ALLEDTSEKVKVYLRIRPFLTSELDRQEDQGCVCIENTETLVLQAPKDSFALKSNERGVGQATHKFTFSQIFGPEVGQVAFFNLTMKEMVKDVLKGQNWLIYTYGVTNSGKTYTIQGTSKDAGILPQSLALIFNSLQGQLHPTPDLKPLLSNEVIWLDSKQIRQEEMKKLSLLIGGLQEEELSTSVKKRVHTESRIGASNSFDSGVAGLSSTSQFTSSSQLDETSQLWAQPDTVPVSVPADIRFSVWISFFEIYNELLYDLLEPPSHQHKRQTLRLCEDQNGNPYVKDLNWIHVRDVEEAWKLLKVGRKNQSFASTHMNQQSSRSHSIFSIRILHLQGEGDIVPKISELSLCDLAGSERCKHQKSGERLKEAGNINTSLHTLGRCIAALRQNQQNRSKQNLIPFRDSKLTRVFQGFFTGRGRSCMIVNVNPCASTYDETLHAAKFSALASQLVHAPPVHLGIPSLHSFIKKHSPQVGPGLEKEDKADSDLEDSPEDEADVSVYGKEELLQVVEAMKALLLKERQEKLQLEIQLREEICNEMVEQMQQREQWCSERLDNQKELMEELYEEKLKILKESLTTFYQEQIQERDEKIEELETLLQEAKQQPAAQQ
B5: KIF20A 55-665 Δ(518-549) (dimeric motor, shortened neck linker) (domain or fragment, mouse, UniProt P97329 55-665, looked up)
chain: ALLEDTSEKVKVYLRIRPFLTSELDRQEDQGCVCIENTETLVLQAPKDSFALKSNERGVGQATHKFTFSQIFGPEVGQVAFFNLTMKEMVKDVLKGQNWLIYTYGVTNSGKTYTIQGTSKDAGILPQSLALIFNSLQGQLHPTPDLKPLLSNEVIWLDSKQIRQEEMKKLSLLIGGLQEEELSTSVKKRVHTESRIGASNSFDSGVAGLSSTSQFTSSSQLDETSQLWAQPDTVPVSVPADIRFSVWISFFEIYNELLYDLLEPPSHQHKRQTLRLCEDQNGNPYVKDLNWIHVRDVEEAWKLLKVGRKNQSFASTHMNQQSSRSHSIFSIRILHLQGEGDIVPKISELSLCDLAGSERCKHQKSGERLKEAGNINTSLHTLGRCIAALRQNQQNRSKQNLIPFRDSKLTRVFQGFFTGRGRSCMIVNVNPCASTYDETLHAAKFSALASQLVHAPPVHLGIPDEADVSVYGKEELLQVVEAMKALLLKERQEKLQLEIQLREEICNEMVEQMQQREQWCSERLDNQKELMEELYEEKLKILKESLTTFYQEQIQERDEKIEELETLLQEAKQQPAAQQ

Biological target: the molecule itself
Assay: SEC-MALS

Stoichiometry N, 2:
B1
B2
B3
B4
B5
